Laboratory results published in article doi:10.1101/2021.12.22.473891 (bioRxiv, 2021).

Target: recombinant human Top2a ΔC (1-1217), lacking the unstructured C-terminal domain (human, UniProt P11388 1-1217)
Assay: native gel or EMSA

Chain of recombinant human Top2a ΔC (1-1217), lacking the unstructured C-terminal domain (P11388 1-1217, stated change not applied): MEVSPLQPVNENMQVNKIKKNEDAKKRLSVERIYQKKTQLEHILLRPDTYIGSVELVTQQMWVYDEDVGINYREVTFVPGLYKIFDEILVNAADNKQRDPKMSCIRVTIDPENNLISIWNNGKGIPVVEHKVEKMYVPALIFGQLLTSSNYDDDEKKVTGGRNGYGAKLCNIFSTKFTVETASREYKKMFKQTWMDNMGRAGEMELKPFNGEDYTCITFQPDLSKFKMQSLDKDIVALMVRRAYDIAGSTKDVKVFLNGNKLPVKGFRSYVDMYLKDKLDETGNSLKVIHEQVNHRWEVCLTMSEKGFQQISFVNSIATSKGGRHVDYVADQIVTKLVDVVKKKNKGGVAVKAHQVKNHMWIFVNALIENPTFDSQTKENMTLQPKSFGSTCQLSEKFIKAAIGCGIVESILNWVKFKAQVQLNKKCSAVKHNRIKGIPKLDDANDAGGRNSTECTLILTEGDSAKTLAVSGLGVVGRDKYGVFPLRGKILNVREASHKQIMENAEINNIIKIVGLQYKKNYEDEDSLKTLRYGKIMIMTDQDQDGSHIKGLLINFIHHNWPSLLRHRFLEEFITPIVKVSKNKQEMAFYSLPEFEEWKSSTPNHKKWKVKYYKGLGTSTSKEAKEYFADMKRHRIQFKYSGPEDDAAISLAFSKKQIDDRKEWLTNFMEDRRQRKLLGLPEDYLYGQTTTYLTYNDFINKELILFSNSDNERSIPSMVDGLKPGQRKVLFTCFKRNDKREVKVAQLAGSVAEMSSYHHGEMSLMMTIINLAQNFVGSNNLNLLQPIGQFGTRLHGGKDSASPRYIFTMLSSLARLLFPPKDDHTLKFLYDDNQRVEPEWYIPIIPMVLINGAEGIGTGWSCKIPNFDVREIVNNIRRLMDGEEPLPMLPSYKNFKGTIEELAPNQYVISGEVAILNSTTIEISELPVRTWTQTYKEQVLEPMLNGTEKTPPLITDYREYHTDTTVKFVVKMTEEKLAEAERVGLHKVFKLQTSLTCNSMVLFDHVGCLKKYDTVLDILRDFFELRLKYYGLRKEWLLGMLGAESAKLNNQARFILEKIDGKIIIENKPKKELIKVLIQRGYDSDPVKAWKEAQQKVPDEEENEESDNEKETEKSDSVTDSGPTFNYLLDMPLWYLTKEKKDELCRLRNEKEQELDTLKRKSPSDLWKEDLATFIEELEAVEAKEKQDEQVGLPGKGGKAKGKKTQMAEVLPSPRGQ

- binding result: binds
B1: human dock II domain, full-length variant (RPA1^1060-1155) with C-terminal His-MBP-tag (domain or fragment)
chain: ADPKKALHHFRAIKKWQSKHPNTLLRRGAFLSYSQKIQEAVKALKLESENRNGRSPGTQEMLRMWYELDEESRRKYQKKAAACPDPSLSVWRPDIY
